Source: article PMC10033314
Residue numbers refer to the chain shown, from its start. Numbers in names are those of the source. Like-named read-outs stand apart in the source and are kept apart here. Blank lines part the entries; values can stand above or below the molecule they belong to.

Legend:
[1] = target: Versican V1-5GAG (truncated V1, residues 21-694) (UniProt P13611)
[2] = target: Quenched-fluorescent peptide substrate fluorescein-5(6)-carbonyl-Ala-Glu-Leu-Asn-Gly-Arg-Pro-Ile-Ser-Ile-Ala-Lys(5(6)-TAMRA)
[3] = target: Biglycan, full length, C-terminal 6x-His (human) (UniProt P21810)
ADAMTS1 (Homo sapiens) = ADAMTS1 (Homo sapiens) (UniProt Q9UHI8); conditions: cited from earlier work
[4] = target: Versican G3 (Homo sapiens) (UniProt P13611); conditions: cited from earlier work
Full-length versican V1 [5] = target: Full-length versican V1 (UniProt P13611)
Full-length versican V1 [6] = target: Full-length versican V1 (UniProt P13611); remark: listed apart in the source
[7] = target: Versican V1-5GAG (truncated V1, residues 21-694) (UniProt P13611); remark: listed apart in the source
[8] = target: Versican V1-5GAG (truncated V1, residues 21-694) (UniProt P13611); remark: listed apart in the source

Chain of UniProt P21810 (P21810 38-368): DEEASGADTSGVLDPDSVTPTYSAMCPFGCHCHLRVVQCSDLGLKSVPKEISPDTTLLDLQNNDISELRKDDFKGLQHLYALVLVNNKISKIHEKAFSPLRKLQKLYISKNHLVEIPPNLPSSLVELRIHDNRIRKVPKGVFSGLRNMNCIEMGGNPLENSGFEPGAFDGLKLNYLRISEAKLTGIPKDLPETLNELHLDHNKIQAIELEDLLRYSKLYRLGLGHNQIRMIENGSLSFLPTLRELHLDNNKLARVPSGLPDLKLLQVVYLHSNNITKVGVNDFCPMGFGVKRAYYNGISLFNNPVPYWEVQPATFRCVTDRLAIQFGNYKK

Molecule: ADAMTS1 variant MDTC (truncated after the cysteine-rich domain) (domain or fragment)
kcat/Km for cleavage of V1-5GAG (50 nM), time course with versikine ELISA [1]: 260 M⁻¹ s⁻¹
reduction of the 30 kDa biglycan fragment against WT ADAMTS1; variant at 50 nM, 24 h at 37 °C, immunoblot and densitometry [3]: 75 % reduction
kcat/Km for proteolysis of the QF peptide [2]: 4500 M⁻¹ s⁻¹

Molecule: ADAMTS1 variant MDTCS (truncated after the spacer domain) (domain or fragment)
kcat/Km for cleavage of V1-5GAG (50 nM), time course with versikine ELISA [1]: 7300 M⁻¹ s⁻¹
kcat/Km for proteolysis of the QF peptide [2]: 7600 M⁻¹ s⁻¹

Molecule: Fibulin-1 (from UniProt P23142)
Kd (ADAMTS1 (Homo sapiens)): 1000 nM

Molecule: Fibulin-1 domain II (from UniProt P23142)
Kd [4]: 26 nM

B1: A disintegrin-like and metalloproteinase with thrombospondin type 1 motifs 1 (ADAMTS1), wild type (enzyme)
chain: FVSSHRYVETMLVADQSMAEFHGSGLKHYLLTLFSVAARLYKHPSIRNSVSLVVVKILVIHDEQKGPEVTSNAALTLRNFCNWQKQHNPPSDRDAEHYDTAILFTRQDLCGSQTCDTLGMADVGTVCDPSRSCSVIEDDGLQAAFTTAHELGHVFNMPHDDAKQCASLNGVNQDSHMMASMLSNLDHSQPWSPCSAYMITSFLDNGHGECLMDKPQNPIQLPGDLPGTSYDANRQCQFTFGEDSKHCPDAASTCSTLWCTGTSGGVLVCQTKHFPWADGTSCGEGKWCINGKCVNKTDRKHFDTPFHGSWGMWGPWGDCSRTCGGGVQYTMRECDNPVPKNGGKYCEGKRVRYRSCNLEDCPDNNGKTFREEQCEAHNEFSKASFGSGPAVEWIPKYAGVSPKDRCKLICQAKGIGYFFVLQPKVVDGTPCSPDSTSVCVQGQCVKAGCDRIIDSKKKFDKCGVCGGNGSTCKKISGSVTSAKPGYHDIITIPTGATNIEVKQRNQRGSRNNGSFLAIKAADGTYILNGDYTLSTLEQDIMYKGVVLRYSGSSAALERIRSFSPLKEPLTIQVLTVGNALRPKIKYTYFVKKKKESFNAIPTFSAWVIEEWGECSKSCELGWQRRLVECRDINGQPASECAKEVKPASTRPCADHPCPQWQLGEWSSCSKTCGKGYKKRSLKCLSHDGGVLSHESCDPLKKPKHFIDFCTMAECS
kcat/Km for cleavage of FL versican, as told in the discussion and the abstract (Full-length versican V1 [5]): 3600 M⁻¹ s⁻¹
kcat/Km for cleavage of V1 (50 nM) at Glu441-Ala442, time course with versikine ELISA, no cofactor (Full-length versican V1 [6]): 3400 M⁻¹ s⁻¹
kcat/Km for cleavage of V1-5GAG (50 nM) at Glu441-Ala442, time course with versikine ELISA [7]: 4200 M⁻¹ s⁻¹
kcat/Km for proteolysis of the QF peptide [2]: 4200 M⁻¹ s⁻¹

B5: ADAMTS1 K735Q/K795Q (β1-β2 and β6-β7 loops of the spacer domain) (enzyme)
chain: B1 chain with K483Q, K543Q
kcat/Km for cleavage of V1-5GAG (50 nM), time course with versikine ELISA [8]: 570 M⁻¹ s⁻¹

B8: ADAMTS1 variant 756-765/828-835 (β3-β4 and β9-β10 loops replaced by those of ADAMTS4) (enzyme)
chain: FVSSHRYVETMLVADQSMAEFHGSGLKHYLLTLFSVAARLYKHPSIRNSVSLVVVKILVIHDEQKGPEVTSNAALTLRNFCNWQKQHNPPSDRDAEHYDTAILFTRQDLCGSQTCDTLGMADVGTVCDPSRSCSVIEDDGLQAAFTTAHELGHVFNMPHDDAKQCASLNGVNQDSHMMASMLSNLDHSQPWSPCSAYMITSFLDNGHGECLMDKPQNPIQLPGDLPGTSYDANRQCQFTFGEDSKHCPDAASTCSTLWCTGTSGGVLVCQTKHFPWADGTSCGEGKWCINGKCVNKTDRKHFDTPFHGSWGMWGPWGDCSRTCGGGVQYTMRECDNPVPKNGGKYCEGKRVRYRSCNLEDCPDNNGKTFREEQCEAHNEFSKASFGSGPAVEWIPKYAGVSPKDRCKLICQAKGIGYFFVLQPKVVDGTPCSPDSTSVCVQGQCVKAGCDRIIDSKKKFDKCGVCGGNGSTCKKISGSVTSAKPGYHDIITIPTGATNIEVKQQGNPGHRSSFLAIKAADGTYILNGDYTLSTLEQDIMYKGVVLRYSGSSAALERIRSFSPLKEPLTIQVLTAGNPQDTRIKYTYFVKKKKESFNAIPTFSAWVIEEWGECSKSCELGWQRRLVECRDINGQPASECAKEVKPASTRPCADHPCPQWQLGEWSSCSKTCGKGYKKRSLKCLSHDGGVLSHESCDPLKKPKHFIDFCTMAECS
kcat/Km for cleavage of V1-5GAG (50 nM), time course with versikine ELISA [8]: 460 M⁻¹ s⁻¹

Results, then the molecule that gave them:

kcat/Km for cleavage of V1-5GAG (50 nM), time course with versikine ELISA [1]: 61 M⁻¹ s⁻¹
kcat/Km for proteolysis of the QF peptide [2]: 6100 M⁻¹ s⁻¹
Molecule: ADAMTS1 variant MD (truncated after the disintegrin-like domain) (domain or fragment)

kcat/Km for cleavage of V1-5GAG (50 nM), time course with versikine ELISA [1]: 66 M⁻¹ s⁻¹
kcat/Km for proteolysis of the QF peptide [2]: 6200 M⁻¹ s⁻¹
Molecule: ADAMTS1 variant MDT (truncated after the central TSR motif) (domain or fragment)

kcat/Km for cleavage of V1-5GAG (50 nM), time course with versikine ELISA [8]: 730 M⁻¹ s⁻¹
B2: ADAMTS1 K795Q (β6-β7 loop of the spacer domain) (enzyme)
chain: B1 chain with K543Q

kcat/Km for cleavage of V1-5GAG (50 nM), time course with versikine ELISA [8]: 410 M⁻¹ s⁻¹
B3: ADAMTS1 variant 828-835 (β9-β10 loop residues 828-835 replaced by ADAMTS4 residues 788-795) (enzyme)
chain: B1 chain with V576A, A579P, L580Q, R581D, P582T, K583R

kcat/Km for cleavage of V1-5GAG (50 nM), time course with versikine ELISA [8]: 6050 M⁻¹ s⁻¹
B4: ADAMTS1 K818Q (β8-β9 loop of the spacer domain) (enzyme)
chain: B1 chain with K566Q

kcat/Km for cleavage of V1-5GAG (50 nM), time course with versikine ELISA [8]: 4800 M⁻¹ s⁻¹
B6: ADAMTS1 K735Q (β1-β2 loop of the spacer domain) (enzyme)
chain: B1 chain with K483Q

kcat/Km for cleavage of V1-5GAG (50 nM), time course with versikine ELISA [8]: 870 M⁻¹ s⁻¹
B7: ADAMTS1 R756Q/R759Q/R762Q (β3-β4 loop of the spacer domain) (enzyme)
chain: B1 chain with R504Q, R507Q, R510Q
